Source: PMC4906247

Assays:
[1] = target: CrAsH-tagged calmodulin, calcium-bound (Ca^2+/CrAsH-CaM) (UniProt P0DP23); assay: fluorescence polarisation; fluorescence anisotropy, purified hDAPK2 CD + ARD variants titrated against Ca2+/CrAsH-CaM; KD estimated by non-linear regression, one-site specific binding (Prism), three experiments
[2] = target: calcium/calmodulin on Sepharose 4B (Sepharose 4B-CaM) (UniProt P0DP23); assay: pull-down; CaM pull-down of hDAPK2 variants from transfected HEK293T cells on Sepharose 4B-CaM, EGTA-mediated elution, western blot, three replicates
[3] = target: hDAPK2 CD + ARD W305D, BiFC construct (human); assay: split reporter (BiFC, NanoBiT); bimolecular fluorescence complementation in HEK293T cells, readout normalized to protein expression; endogenous Ca2+/CaM present
[4] = target: calcium/calmodulin on Sepharose 4B (Sepharose 4B-CaM) (UniProt P0DP23); assay: pull-down; CaM pull-down of purified hDAPK2 variants, SDS-PAGE with Coomassie blue staining, three repetitions
[5] = target: hDAPK2 CD + ARD BL mutant (Arg47, Arg50, Arg53, Arg54 to glutamate) (human); assay: SAXS; EMBL P12 (PETRA-III), 2.0-15.0 mg/ml, 283 K; monomer/dimer equilibrium mixture fitted (OLIGOMER)

Substance | Kd [1] | other results
hDAPK2 CD + ARD S308A, D220K (domain or fragment) | < 3.5 nM | –
hDAPK2 CD + ARD S308A, L226R (domain or fragment) | < 3.5 nM | –
hDAPK2 CD + ARD W305D, L226R (domain or fragment) | 2700 nM | –
hDAPK2 W305D D220K mutant expressed in HEK293T cells (CaM pull-down from lysate) (natural protein) | – | fold increase of Ca2+/CaM binding against hDAPK2 W305D [2]: 2 fold
hDAPK2 CD + ARD W305D, D220K (domain or fragment) | 9700 nM | –
hDAPK2 CD + ARD W305D, BiFC construct (domain or fragment) | – | fold increase of the BiFC signal [3]: > 5 fold
hDAPK2 CD + ARD BL mutant (Arg47, Arg50, Arg53, Arg54 to glutamate) (domain or fragment) | – | percent of the Ca2+/CaM binding of WT [4]: 46 % of WT; percent monomer [5]: 89%
